Columns and labels:
[1] = target: T1, MLO-Y4 cell surface proteins (Mus musculus, UniProt P59242); test: Crosslinking/co-immunoprecipitation/mass spectrometry (TMT quantitative proteomics) to identify irisin receptors; assay type: binding; details: co-precipitated protein Cgn (CING_MOUSE)
T1 construct: endogenous in cells; host or cells: MLO-Y4
T1 sequence (P59242 1-1191): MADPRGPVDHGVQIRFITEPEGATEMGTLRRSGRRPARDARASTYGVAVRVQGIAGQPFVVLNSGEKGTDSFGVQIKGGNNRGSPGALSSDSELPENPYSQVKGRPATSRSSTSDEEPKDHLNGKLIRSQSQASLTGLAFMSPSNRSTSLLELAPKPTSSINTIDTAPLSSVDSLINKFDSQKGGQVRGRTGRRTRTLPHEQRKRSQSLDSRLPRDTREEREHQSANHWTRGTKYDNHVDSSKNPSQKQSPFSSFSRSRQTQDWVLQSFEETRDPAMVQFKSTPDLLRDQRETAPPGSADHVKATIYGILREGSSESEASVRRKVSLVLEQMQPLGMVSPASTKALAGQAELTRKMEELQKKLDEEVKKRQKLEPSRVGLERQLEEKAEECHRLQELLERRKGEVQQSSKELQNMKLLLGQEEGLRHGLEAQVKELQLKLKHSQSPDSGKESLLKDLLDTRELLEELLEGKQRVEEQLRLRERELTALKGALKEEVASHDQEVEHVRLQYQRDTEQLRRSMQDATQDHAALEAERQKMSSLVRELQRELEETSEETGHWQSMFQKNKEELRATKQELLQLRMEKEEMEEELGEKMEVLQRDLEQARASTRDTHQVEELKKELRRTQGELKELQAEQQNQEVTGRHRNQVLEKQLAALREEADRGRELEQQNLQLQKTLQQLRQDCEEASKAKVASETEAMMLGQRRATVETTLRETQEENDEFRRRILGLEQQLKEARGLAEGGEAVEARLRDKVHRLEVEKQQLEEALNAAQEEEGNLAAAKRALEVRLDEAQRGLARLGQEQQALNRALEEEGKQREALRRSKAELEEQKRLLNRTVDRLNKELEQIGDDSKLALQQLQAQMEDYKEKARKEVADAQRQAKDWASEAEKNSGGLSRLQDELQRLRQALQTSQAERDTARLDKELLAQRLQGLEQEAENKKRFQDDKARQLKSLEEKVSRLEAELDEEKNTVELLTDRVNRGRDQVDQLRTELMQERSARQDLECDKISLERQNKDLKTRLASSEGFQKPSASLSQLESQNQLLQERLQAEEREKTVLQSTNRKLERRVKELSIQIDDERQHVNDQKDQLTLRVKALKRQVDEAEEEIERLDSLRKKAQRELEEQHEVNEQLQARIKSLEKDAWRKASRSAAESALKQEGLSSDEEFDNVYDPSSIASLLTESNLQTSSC
How it was run: (§1)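 Relative protein abundance came from 6-plex TMT MS3 quantitation on an Orbitrap Fusion Lumos, after in-gel trypsin digestion of Coomassie-stained SDS-PAGE lanes. Input was a Ni-NTA pulldown (250 mM imidazole elution) of lysates from murine MLO-Y4 cells. These cells were treated on ice with His-tagged irisin or adipsin (10 nM, 20 min) in serum-free medium, then crosslinked with 1.5 mM DTSSP for 30 min.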

[2] = target: T2, MLO-Y4 cell surface proteins (Mus musculus, UniProt E9Q557); test: as above; assay type: binding; details: co-precipitated protein Dsp (DESP_MOUSE)
T2 construct: endogenous in cells; host or cells: MLO-Y4
How it was run: as §1

T2 sequence (E9Q557 whole entry): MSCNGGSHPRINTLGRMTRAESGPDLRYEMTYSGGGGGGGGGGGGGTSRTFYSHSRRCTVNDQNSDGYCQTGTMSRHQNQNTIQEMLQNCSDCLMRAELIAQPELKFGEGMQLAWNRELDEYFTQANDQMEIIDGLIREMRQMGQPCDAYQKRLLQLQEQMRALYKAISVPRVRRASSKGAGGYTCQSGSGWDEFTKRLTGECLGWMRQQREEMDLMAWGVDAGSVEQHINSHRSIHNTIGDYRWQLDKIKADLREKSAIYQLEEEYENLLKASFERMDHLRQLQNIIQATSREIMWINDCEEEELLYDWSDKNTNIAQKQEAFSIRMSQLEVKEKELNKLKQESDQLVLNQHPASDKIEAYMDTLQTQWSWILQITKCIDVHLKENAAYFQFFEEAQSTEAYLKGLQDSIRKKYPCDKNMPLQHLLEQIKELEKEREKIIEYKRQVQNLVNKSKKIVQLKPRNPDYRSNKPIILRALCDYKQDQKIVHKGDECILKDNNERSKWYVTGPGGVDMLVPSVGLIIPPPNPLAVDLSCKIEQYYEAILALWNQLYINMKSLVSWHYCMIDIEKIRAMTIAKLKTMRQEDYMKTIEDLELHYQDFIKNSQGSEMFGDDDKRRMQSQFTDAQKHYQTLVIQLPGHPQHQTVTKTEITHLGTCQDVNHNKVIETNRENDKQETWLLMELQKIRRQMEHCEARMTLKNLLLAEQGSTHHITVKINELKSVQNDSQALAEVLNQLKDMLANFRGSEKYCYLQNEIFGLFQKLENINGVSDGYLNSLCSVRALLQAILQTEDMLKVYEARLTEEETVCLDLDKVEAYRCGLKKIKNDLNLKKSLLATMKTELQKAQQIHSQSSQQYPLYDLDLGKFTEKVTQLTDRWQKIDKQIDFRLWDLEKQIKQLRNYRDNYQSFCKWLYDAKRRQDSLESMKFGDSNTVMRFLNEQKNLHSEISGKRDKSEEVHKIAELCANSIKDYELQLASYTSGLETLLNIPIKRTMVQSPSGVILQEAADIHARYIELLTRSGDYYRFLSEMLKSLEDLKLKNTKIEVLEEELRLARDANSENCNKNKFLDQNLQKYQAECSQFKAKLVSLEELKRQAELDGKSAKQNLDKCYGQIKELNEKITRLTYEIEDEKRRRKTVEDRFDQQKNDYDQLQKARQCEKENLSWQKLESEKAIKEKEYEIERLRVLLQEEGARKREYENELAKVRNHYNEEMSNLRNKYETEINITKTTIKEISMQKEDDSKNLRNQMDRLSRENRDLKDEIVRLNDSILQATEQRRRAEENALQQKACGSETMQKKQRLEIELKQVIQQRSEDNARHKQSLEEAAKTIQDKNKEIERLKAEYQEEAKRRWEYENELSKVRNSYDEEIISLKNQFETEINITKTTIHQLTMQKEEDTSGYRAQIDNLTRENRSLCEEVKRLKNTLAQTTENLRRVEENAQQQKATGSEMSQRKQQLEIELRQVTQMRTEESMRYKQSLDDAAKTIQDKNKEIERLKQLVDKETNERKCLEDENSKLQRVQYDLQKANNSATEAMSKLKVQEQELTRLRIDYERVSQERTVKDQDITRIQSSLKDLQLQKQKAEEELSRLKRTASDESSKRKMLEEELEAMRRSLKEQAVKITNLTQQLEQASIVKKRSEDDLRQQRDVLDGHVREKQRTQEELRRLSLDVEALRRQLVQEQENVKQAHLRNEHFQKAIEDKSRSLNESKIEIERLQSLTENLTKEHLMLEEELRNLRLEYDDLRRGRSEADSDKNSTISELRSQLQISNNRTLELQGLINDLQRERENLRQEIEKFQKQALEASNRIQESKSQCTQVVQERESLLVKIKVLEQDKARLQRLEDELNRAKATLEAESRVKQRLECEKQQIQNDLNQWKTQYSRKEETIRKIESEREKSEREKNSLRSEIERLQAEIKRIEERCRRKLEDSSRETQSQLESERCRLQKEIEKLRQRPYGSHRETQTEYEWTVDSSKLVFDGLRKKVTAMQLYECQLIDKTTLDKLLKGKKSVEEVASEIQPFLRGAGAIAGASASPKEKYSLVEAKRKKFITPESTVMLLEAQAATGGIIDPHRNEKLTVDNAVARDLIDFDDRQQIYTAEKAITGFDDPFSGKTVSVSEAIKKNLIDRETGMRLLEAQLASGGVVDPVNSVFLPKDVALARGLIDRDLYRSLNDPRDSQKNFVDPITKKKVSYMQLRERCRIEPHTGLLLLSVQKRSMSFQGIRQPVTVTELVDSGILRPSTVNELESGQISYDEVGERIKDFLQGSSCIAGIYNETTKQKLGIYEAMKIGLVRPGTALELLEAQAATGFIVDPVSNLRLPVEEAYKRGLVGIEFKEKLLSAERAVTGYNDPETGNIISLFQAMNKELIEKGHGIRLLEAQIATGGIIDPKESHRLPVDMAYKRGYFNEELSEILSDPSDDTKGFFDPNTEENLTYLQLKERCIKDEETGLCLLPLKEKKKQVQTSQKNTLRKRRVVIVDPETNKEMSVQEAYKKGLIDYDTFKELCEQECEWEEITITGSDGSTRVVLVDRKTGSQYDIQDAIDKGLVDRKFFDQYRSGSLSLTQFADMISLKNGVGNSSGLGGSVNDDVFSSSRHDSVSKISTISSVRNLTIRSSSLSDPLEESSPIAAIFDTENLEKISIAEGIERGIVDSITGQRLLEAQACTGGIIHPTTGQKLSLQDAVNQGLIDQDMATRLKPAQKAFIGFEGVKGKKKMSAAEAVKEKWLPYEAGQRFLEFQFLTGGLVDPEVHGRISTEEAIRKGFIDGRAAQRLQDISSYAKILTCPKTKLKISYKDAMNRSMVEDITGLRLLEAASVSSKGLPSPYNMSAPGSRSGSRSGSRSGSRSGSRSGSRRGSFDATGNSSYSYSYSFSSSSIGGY

B1: irisin: secreted cleaved form of FNDC5; recombinant human/mouse irisin with C-terminal his tag produced in HEK293 cells (protein)
chain: DSPSAPVNVTVRHLKANSAVVSWDVLEDEVVIGFAISQQKKDVRMLRFIQEVNTTTRSCALWDLEEDTEYIVHVQAISIQGQSPASEPVLFKTPREAEKMASKNKDEVTMKE
modifications: left off: small tags and cut ends
notes: secreted cleaved form of FNDC5; recombinant human/mouse irisin with C-terminal his tag produced in HEK293 cells
TMT signal-to-noise ratio [1]: 16.0255
irisin/adipsin TMT signal-to-noise ratio [1]: 0.080
TMT signal-to-noise ratio [2]: 2.707
irisin/adipsin TMT signal-to-noise ratio [2]: 0.034

Reference: patent publication US20210063414A1, “METHODS FOR PREVENTING AND/OR TREATING BONE LOSS CONDITIONS BY MODULATING IRISIN” (Dana-Farber Cancer Institute, Inc., priority 2018, published 2021)
